Source: patent US20220031841A1 (ABSCI, published 2022)

Legend:
[1] = biological target: T1, Melanoma-associated antigen 3 (MAGE-A3) (human, UniProt P43357 1-314); test: HuProt protein array, antibody at 1 µg/ml, Alexa-647 anti-human IgG Fc; F635 signal as z-score; MAGEA3 replicate 1
T1 construct: The array carries full-length recombinant human proteins expressed in S. cerevisiae; also called Human MAGE-A3
From the text: (§1) Large scale protein arrays are versatile and sensitive platforms for antibody specificity evaluation. They can be used for the evaluation of protein binding or affinity reagents that are widely employed in research and clinical applications. The microarray used in our target identification experiment provides the largest number of unique, full-length, individually purified human proteins on a single microscope slide. This allows thousands of interactions to be profiled in a high-throughput manner. The hill-length recombinant proteins are expressed in the yeast S. cerevisiae, purified, and printed on glass slides in duplicate along with a set of control proteins (GST, BSA, histones, IgG, etc.). Such microarray is not restricted to a particular type of surface coating, although the default is glass coated with ultra-thin nitrocellulose film for the non-covalent, yet irreversible, capture of active proteins to the surface. Fourteen Protein arrays were used for the antibody cross-reactivity assay of the samples. […] The antibody-antigen binding score was calculated for each protein represented on the array and expressed as z-scores. […]
(§2) Z score is the average Z score of the duplicate spots of a given protein (each protein is printed in duplicate on a HuProt™ array). The Z score of each spot on a given array is calculated according to the equation: […]

[2] = biological target: T2, Inorganic pyrophosphatase (PPA1) (human, UniProt Q15181 2-289); test: HuProt protein array, antibody at 1 µg/ml, Alexa-647 anti-human IgG Fc; F635 signal as z-score; PPA1 replicate 1
T2 construct: The array carries full-length recombinant human proteins expressed in S. cerevisiae; also called Human PPA1
T2 sequence: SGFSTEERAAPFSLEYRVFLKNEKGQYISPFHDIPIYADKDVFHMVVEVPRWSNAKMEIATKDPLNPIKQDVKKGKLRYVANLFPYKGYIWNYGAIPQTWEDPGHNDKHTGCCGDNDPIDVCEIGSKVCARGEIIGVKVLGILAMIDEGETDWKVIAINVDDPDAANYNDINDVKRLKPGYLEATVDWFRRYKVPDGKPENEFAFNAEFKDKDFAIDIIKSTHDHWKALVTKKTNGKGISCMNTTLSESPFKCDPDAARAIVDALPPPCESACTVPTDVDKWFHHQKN
From the text: as §1, §2

[3] = biological target: T3, Alpha-taxilin (TXLNA) also known as interleukin-14A (human, UniProt P40222 1-546); test: HuProt protein array, antibody at 1 µg/ml, Alexa-647 anti-human IgG Fc; F635 signal as z-score; TXLNA replicate 1
T3 construct: The array carries full-length recombinant human proteins expressed in S. cerevisiae; also called IL-14A; TXLNA/IL-14A
T3 sequence (P40222 whole entry): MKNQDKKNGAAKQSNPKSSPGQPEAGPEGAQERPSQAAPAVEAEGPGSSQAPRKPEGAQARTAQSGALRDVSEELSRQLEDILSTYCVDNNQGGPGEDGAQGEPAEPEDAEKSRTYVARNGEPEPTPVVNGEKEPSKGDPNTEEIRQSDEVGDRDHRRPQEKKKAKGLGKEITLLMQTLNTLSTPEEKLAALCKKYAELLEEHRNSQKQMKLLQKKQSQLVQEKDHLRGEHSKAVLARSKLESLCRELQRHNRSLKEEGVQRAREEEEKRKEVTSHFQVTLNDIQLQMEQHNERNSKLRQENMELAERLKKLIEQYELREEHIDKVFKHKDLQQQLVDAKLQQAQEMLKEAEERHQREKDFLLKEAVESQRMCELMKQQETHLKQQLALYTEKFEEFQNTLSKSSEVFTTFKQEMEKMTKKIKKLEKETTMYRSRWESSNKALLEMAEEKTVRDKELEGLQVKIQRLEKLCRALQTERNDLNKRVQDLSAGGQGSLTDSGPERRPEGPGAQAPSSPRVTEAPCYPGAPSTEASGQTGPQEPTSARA
From the text: as §1, §2

[4] = biological target: T4, O-linked N-acetylglucosamine (GlcNAc) transferase (OGT) (human, UniProt O15294 2-1046); test: HuProt protein array, antibody at 1 µg/ml, Alexa-647 anti-human IgG Fc; F635 signal as z-score; OGT replicate 1
T4 construct: The array carries full-length recombinant human proteins expressed in S. cerevisiae; also called Human OGT
T4 sequence: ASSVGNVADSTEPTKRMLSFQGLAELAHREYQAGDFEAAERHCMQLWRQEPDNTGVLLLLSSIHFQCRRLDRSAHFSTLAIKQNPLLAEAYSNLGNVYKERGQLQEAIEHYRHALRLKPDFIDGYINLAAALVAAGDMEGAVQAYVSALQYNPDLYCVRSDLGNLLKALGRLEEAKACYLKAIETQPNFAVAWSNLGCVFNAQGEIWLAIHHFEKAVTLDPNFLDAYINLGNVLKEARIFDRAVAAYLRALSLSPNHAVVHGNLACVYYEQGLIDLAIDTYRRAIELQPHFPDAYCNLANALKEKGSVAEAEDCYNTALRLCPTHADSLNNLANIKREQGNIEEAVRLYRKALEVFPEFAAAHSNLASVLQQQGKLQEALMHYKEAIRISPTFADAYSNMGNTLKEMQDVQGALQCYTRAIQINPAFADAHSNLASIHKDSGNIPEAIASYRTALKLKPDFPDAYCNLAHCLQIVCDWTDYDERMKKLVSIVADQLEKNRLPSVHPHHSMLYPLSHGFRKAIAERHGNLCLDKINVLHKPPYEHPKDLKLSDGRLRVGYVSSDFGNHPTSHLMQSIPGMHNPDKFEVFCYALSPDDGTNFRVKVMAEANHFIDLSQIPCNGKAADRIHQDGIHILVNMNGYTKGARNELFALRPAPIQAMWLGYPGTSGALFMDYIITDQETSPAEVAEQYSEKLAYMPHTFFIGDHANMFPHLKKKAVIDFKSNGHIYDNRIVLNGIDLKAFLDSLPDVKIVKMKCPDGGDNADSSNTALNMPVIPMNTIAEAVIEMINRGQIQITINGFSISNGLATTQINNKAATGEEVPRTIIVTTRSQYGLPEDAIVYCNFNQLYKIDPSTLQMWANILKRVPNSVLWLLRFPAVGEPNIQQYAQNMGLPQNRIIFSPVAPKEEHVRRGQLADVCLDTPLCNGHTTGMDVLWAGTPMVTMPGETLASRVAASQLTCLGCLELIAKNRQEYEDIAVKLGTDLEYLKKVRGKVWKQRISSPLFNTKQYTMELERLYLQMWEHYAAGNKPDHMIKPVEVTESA
From the text: as §1, §2

[5] = biological target: T5, Kinesin light chain 4 protein (KLC4) (human, UniProt Q9NSK0 2-619); test: HuProt protein array, F635 z-score
T5 construct: The array carries full-length recombinant human proteins expressed in S. cerevisiae; also called Human KLC4
T5 sequence (Q9NSK0 2-619 limits assumed): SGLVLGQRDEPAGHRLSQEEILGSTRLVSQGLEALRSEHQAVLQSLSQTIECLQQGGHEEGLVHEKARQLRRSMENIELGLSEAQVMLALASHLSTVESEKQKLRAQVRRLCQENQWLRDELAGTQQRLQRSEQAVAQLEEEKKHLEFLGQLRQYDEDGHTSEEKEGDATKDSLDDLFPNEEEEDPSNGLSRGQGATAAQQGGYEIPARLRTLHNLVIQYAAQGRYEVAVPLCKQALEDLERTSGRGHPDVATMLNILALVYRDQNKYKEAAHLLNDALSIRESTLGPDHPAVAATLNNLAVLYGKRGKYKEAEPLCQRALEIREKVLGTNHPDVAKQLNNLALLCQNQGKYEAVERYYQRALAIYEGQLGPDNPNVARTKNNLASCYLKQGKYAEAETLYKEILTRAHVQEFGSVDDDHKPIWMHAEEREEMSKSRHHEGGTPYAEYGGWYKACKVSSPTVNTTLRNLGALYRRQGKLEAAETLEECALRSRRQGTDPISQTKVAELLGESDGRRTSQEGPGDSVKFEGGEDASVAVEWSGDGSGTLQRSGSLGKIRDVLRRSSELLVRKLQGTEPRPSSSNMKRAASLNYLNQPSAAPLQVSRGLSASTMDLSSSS
Procedure, shortened: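 Cross-reactivity screen: test antibody at 1 μg/ml, 1 h at room temperature, on nitrocellulose-coated slides printed with yeast-derived human proteins. Readout via Alexa-647 anti-human Fc secondary, scored as z-score.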

T1 sequence (P43357 whole entry): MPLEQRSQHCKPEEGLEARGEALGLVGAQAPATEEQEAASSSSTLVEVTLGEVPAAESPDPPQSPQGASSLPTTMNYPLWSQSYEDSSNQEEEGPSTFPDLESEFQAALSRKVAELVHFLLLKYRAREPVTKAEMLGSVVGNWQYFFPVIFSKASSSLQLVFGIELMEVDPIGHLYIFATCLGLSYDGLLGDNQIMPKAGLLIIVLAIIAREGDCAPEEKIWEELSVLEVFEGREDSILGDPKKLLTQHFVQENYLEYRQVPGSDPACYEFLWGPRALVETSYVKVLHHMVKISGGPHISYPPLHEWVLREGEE

B1: TMEL1008 (antibody, V domains shown)
VH: QVQLVQSGAEVKKPGSSVKVSCKASGGTFNRDGIIWVRQAPGQGLEWMGRIIPILGIANYAQKFQGRVTIIADKSTSTAYMELSSLRSEDTAVYYCARESEVGRGMDVWGQGTTVTVSS
VL: ASALTQPASVSGSPGQSITISCTGTSSDVGDYNYVSWYQQHPGKAPKLMIYDVSNRPSGVSHRFSGSKSGNTASLTISGLQAEDEADYYCSSYTISSTLGVFGPGTKVTVLG
notes: It was detected with an anti-human IgG Fc gamma secondary antibody
- binding result [1]: binds

B2: TMEL1010 (antibody, V domains shown)
VH: QVQLVQSGAEVKKPGASVKVSCKASGYTFSSYGISWVRQAPGQGLEWMGWISAYNGNTNYAKKLQGRVTMTTDTSTSTAYLELRSLRSDDTAVYYCARGDGPFDYWGQGTLVTVSS
VL: EIVMTQSPATLSVSPGERATLSCWASQSVSSSLAWYQQKPGQAPRLLMYGASNRATGIPARFSGSGSGTEFTLTISSLQSEDFAVYYCQQYNKWPPDTFGQGTKLEIKR
notes: as for B1
- binding result [2]: binds

B3: TMEL1011 (antibody, V domains shown)
VH: PVQLVQSGAEVKKPGSSVKVSCKASGGTFSSYSFNWVRQAPGQGLEWMARIIPILGLANYAQKFQGRVTLTADESTSTAYMELSSLRSEDTAIFYCAGMVLGQLGFDPWGQGTLVTVSS
VL: QFMLTQPHSVSESPGRTVTISCTRSSGSIARNYVHWYQHRPGSSPTTVIYEDDQRPSGVPDRFSGSIDSSSNSASLTISGLKPEDEADYFCQSYDSNIWVFGGGTKLTVLG
notes: as for B1
- binding result [3]: binds

B4: TMEL1014 (antibody, V domains shown)
VH: SVQLVESGGGVVQPGRSLRLSCAASGFTFSSYTMHWVRQAPGKGLEWVALISYDGSNKYYADSVKGRFTISRDNPKNTLYLQMNSLRVEDTAVYYCARDWTLGYWGQGTLVTVSS
VL: VSSELTQDPAVSVALGQTVRITCQGDSLRNYYANWYQQKPGQAPILVIYDKNNRPSGIPDRFSGSSSGNTASLTITGAQAEDEADYYCNSRDSSGYHLVFGGGTKLTVLG
notes: as for B1
- binding result [4]: binds

B5: TMEL1013 (antibody, V domains shown)
VH: PVQLVQSGAEVKKPGSSVKVSCKASGGTFSSYTINWVRQAPGQGLEWMGRIIPILGVANYAQKFQGRVTITADKSTSTAYMDLSSLRSEDTAVYYCAREWERAFDYWGQGTLVTVSS
VL: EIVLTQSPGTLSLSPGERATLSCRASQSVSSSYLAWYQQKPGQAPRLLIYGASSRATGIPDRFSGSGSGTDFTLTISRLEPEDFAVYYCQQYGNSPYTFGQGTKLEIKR
- binding result [5]: no binding (tested: 1 µg/ml)
